Laboratory results from patent US8779109B2, “Growth hormones with prolonged in-vivo efficacy” (Novo Nordisk Health Care AG, priority 2010, dated 2014).
Like-named read-outs stand apart in the source and are kept apart here.

Assays:
[1] = biological target: T1, human growth hormone receptor (BAF-3 GHR cells) (Homo sapiens, UniProt P10912); assay: BAF-3 GHR assay to determine growth hormone activity; assay type: cell-based, mouse; settings: Table 5; relative to hGH = 1.0 (def)
T1 construct: expressed in transfected cells; host or cells: BAF-3 (murine pro-B lymphoid cell line)
T1 sequence (P10912 19-638): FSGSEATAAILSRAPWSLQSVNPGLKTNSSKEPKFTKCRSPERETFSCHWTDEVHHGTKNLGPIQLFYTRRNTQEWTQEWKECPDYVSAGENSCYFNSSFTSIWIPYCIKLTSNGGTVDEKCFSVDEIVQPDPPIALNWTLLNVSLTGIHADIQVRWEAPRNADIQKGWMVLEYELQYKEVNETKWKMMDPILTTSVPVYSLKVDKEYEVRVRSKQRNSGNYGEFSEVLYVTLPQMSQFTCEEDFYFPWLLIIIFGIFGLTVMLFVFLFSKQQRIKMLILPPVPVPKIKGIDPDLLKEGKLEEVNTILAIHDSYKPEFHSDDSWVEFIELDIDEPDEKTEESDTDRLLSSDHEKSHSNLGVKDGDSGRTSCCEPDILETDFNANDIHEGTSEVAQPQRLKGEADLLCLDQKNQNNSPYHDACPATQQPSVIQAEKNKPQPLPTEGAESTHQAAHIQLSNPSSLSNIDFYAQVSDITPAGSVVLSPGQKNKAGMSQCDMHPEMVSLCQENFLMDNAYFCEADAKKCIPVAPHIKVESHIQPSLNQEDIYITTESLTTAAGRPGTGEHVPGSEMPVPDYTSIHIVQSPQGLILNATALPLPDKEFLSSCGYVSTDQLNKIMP
Experimental: This clone can be used to evaluate the effect of different growth hormone samples on the survival of the BAF-3 GHR.
The BAF-3 GHR cells are grown in starvation medium (culture medium without growth hormone) for 24 hrs at 37° C., 5% CO2.
The cells are washed and re-suspended in starvation medium and seeded in plates. 10 μL of growth hormone compound or human growth hormone in different concentrations or control is added to the cells, and the plates are incubated for 68 hrs at 37° C., 5% CO2.
AlamarBlue® is added to each well and the cells are then incubated for another 4 hrs. The AlamarBlue® is a redox indicator, and is reduced by reactions innate to cellular metabolism and, therefore, provides an indirect measure of viable cell number.
Finally, the metabolic activity of the cells is measure in a fluorescence plate reader. The absorbance in the samples is expressed in % of cells not stimulated with growth hormone compound or control and from the concentration-response curves the activity (amount of a compound that stimulates the cells with 50%) can be calculated.

[2] = tested on: plasma IGF-1; assay: In vivo dose-response study in hypophysectomised Sprague Dawley rats (plasma IGF-1); settings: Table 5
Experimental: The in vivo dose-response relationship is studied in hypophysectomised male Sprague Dawley rats. The hypophysectomised rat is a well known and recognised animal model of growth hormone deficiency, where no production of growth hormone occurs after the surgical removal of the pituitary gland. This also leads to low circulating levels of insulin-like growth factor-1 (IGF-1) another important clinical feature of growth hormone deficiency in humans.
The hypophysectomy is performed on 4 week old male rats weighing 90-100 g. The animals entering the study 3-4 weeks after the surgery weighing 100-110 g. Animals with a body weight gain of more than 10% during the 3-4 weeks after surgery are not allowed to enter the study.
Dose response studies are performed using five dose levels of compound 45.4 from 1-150 nmol/rat.

[3] = in vivo, iv
Experimental: (§4) The pharmacokinetic of the compounds of the examples is investigated in male Sprague Dawley rats after intravenous (i.v.) and subcutaneous (s.c.) single dose administration.
(§5) Test compounds are diluted to a final concentration of 1 mg/mL in a dilution buffer consisting of: Glycine 20 mg/mL, mannitol 2 mg/mL, NaHCO3 2.5 mg/mL, pH adjusted to 8.2.
(§6) The test compounds are studied in male Sprague Dawley rats weighing 250 g. The test compounds are administered as a single injection either i.v. in the tail vein or s.c. in the neck with a 25 G needle at a dose of 60 nmol/kg body weight.
(§7) At each sampling time 0.25 ml blood is drawn from the tail vein using a 25 G needle. The blood is sampled into a EDTA coated test tube and stored on ice until centrifugation at 1200×G for 10 min at 4° C. Plasma is transferred to a Micronic tube and stored at −20° C. until analysis.
(§8) A non-compartmental pharmacokinetic analysis is performed on mean concentration-time profiles of each test compound using WinNonlin Professional (Pharsight Inc., Mountain View, Calif., USA). The pharmacokinetic parameter estimates of terminal half-life (t1/2) and mean residence time (MRT) are calculated.

[4] = biological target: T2, chymotrypsin (Bos taurus, UniProt P00766); assay: Protease stability, incubation with chymotrypsin; assay type: in vitro ADME; settings: incubation for 4 hours with chymotrypsin
T2 construct: purchased Roche
From the text: (§1) The compound of interest is digested by a relevant protease (Trypsin, Chymotrypsin, Pepsin, Elastase, Factor VIIa, Factor Xa, Proteinase K, Carboxy peptidase, DPPIV, Neutral Endopeptidase, Granzyme B, Proline-endopeptidase, Staphylococcal peptidase I, Thermolysin, Thrombin, Arg-C proteinase, Asp-N endopeptidase, Caspase 1-10, Clostripain, Enterokinase, Glutamyl endopeptidase, Granzyme B, LysC, LysN, Proline-endopeptidase and Staphylococcal peptidase I or tissue extracts.) in an appropriate buffer (e.g. PBS or ammonium bicarbonate) at 37° C. for up till 24 hrs. Proteolytic degradation is assessed by a HPLC assay.
(§2) 100 μL of test compound solution at 1 mg/mL in ammonium bicarbonate buffer is degraded by enzyme for up till 24 hrs at 37° C. […] These diluted samples are analysed by reversed phase HPLC to estimate the degree of proteolytic digestion.
(§3) 10 μL of the above solution is injected on a reversed phase Vydac C4 2×150 mm column eluted with a linear gradient from 0.1% TFA in water to 100% acetonitrile containing 0.1% TFA over a period of 30 min at a flow rate of 0.2 ml/min. […] Percentage (%) intact compound at time point t=T is calculated from the peak area at time point t=T (AT) and the peak area at t=0 (A0) as (AT/A0)×100%. […] Half life (T1/2) is calculated as one phase decay also by GraphPad Prism software. […]

[5] = biological target: T3, elastase (Sus scrofa, UniProt P00772); assay: Protease stability, incubation with elastase; assay type: in vitro ADME, porcine; settings: incubation for 4 hours with elastase
T3 construct: purchased Sigma; host or cells: porcine pancreas
T3 sequence (P00772 27-266): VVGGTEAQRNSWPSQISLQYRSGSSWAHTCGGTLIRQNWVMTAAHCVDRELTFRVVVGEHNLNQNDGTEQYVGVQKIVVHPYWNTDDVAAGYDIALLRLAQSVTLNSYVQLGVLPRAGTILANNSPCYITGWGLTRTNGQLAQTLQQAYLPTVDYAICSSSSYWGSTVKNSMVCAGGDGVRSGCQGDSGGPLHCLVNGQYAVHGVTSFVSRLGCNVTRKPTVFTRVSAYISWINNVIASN
From the text: as §1, §2, §3

[6] = Pharmacokinetics in Sprague Dawley rats after i.v. and s.c. single dose
Experimental: as §4, §5, §6, §7, §8

| In vitro potency [1] | Substance | Duration of IGF-1 increase [2] [h] | T1/2 (i.v. Rat) [3] [h] | MRT ([3]; rat, 60 nmol/kg) [h] | T1/2 ([3]; rat, 60 nmol/kg) [h] | Chymotrypsin (% intact GH compound) [4] [%] | Elastase (% intact GH compound) [5] [%] | T1/2 (i.v. Rat) ([6]; Table 4) [h] | T1/2 (i.v. Rat) ([6]; Table 5) [h] |
| --- | --- | --- | --- | --- | --- | --- | --- | --- | --- |
| 4.7 | 2-(C20diacid-Trx-γGlu-OEG-OEG-δLys)-carbonylmethylene-S^101-hGH[L101C] [Compound 44.1] | >48 | 5.6 | 7.2 | 5.6 | – | – | – | – |
| – | hGH: wild-type human growth hormone, 191 amino acid residue protein (SEQ ID NO: 1) | – | – | – | – | 40 | 25 | 0.23 | 0.23 |
